For assay [1], the target named is ADAM 10 on IMPE cells. Put plainly: cell-based or functional assay.
The target of assay [2] is human ADAM 9 catalytic/disintegrin domains (human) (UniProt Q13443). Put plainly: enzyme inhibition, fluorescent peptide substrate.
Assay [3] deals with MMP 9. Put plainly: enzyme inhibition, fluorescent peptide substrate.
The target in assay [4] is MMP 1. The experiment in a line: enzyme inhibition, fluorescent peptide substrate.
Assay [5] deals with MMP 13. The experiment in a line: enzyme inhibition, fluorescent peptide substrate.
Assay [6] concerns the target MMP 2. Put plainly: enzyme inhibition, fluorescent peptide substrate.
Assay [7] addresses human ADAM 9 catalytic/disintegrin domains (human) (UniProt Q13443). Put plainly: enzyme inhibition, fluorescent peptide substrate. The source holds these as a separate data set.
Assay [8] has as its target Human TACE protease containing the catalytic/disintegrin domains (human) (UniProt P78536). The experiment in a line: enzyme inhibition, fluorescent peptide substrate.
In assay [9] the target is MMP 3. The experiment in a line: enzyme inhibition, fluorescent peptide substrate.
The target in assay [10] is TACE catalytic domain (human) (human) (UniProt P78536). The experiment in a line: enzyme inhibition, fluorescent peptide substrate.
The target of assay [11] is MMP 14. The experiment in a line: enzyme inhibition, fluorescent peptide substrate.
Assay [12] concerns the target Human ADAM10 protease containing the catalytic/disintegrin domains (human) (UniProt O14672). The experiment in a line: enzyme inhibition, fluorescent peptide substrate.
The target in assay [13] is mouse ADAM 10 catalytic domain (mouse) (UniProt O35598). Put plainly: enzyme inhibition ('unpublished observation').
Assay [14] has as its target T1, ADAM 8 catalytic domain (mouse) (mouse) (UniProt Q05910).
T1 sequence (looked up): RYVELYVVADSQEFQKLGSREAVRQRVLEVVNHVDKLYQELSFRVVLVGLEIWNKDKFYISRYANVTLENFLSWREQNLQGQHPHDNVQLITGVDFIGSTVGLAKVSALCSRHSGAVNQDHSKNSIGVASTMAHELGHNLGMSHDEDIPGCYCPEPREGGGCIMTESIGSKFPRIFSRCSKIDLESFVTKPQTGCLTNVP
Put plainly: enzyme inhibition, fluorescamine assay with Dnp peptide substrate.

Assay [15] addresses ADAM 10 protein on Ramos cells, U937 cells and B cells. Put plainly: cell-based or functional assay.
The target in assay [16] is Human TACE protease containing the catalytic/disintegrin domains (human) (UniProt P78536). The experiment in a line: cell-based or functional assay.

Read-outs that look alike come from different tables or passages of the source.

Chain of Human TACE protease containing the catalytic/disintegrin domains (human) (P78536 215-671 limits assumed): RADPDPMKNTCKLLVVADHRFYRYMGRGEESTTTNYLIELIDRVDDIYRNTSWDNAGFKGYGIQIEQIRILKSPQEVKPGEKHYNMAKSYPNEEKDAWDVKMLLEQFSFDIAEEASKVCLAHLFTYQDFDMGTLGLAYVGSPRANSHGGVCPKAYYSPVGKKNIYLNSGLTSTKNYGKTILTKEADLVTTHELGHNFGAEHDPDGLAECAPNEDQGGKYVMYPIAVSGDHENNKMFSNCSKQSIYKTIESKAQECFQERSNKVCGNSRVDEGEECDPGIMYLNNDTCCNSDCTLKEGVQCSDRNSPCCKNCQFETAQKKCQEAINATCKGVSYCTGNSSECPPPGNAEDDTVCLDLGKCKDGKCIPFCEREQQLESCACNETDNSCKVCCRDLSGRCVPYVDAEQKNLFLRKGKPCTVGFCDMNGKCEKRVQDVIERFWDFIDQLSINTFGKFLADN
Chain of human ADAM 9 catalytic/disintegrin domains (human) (Q13443 206-697 limits assumed): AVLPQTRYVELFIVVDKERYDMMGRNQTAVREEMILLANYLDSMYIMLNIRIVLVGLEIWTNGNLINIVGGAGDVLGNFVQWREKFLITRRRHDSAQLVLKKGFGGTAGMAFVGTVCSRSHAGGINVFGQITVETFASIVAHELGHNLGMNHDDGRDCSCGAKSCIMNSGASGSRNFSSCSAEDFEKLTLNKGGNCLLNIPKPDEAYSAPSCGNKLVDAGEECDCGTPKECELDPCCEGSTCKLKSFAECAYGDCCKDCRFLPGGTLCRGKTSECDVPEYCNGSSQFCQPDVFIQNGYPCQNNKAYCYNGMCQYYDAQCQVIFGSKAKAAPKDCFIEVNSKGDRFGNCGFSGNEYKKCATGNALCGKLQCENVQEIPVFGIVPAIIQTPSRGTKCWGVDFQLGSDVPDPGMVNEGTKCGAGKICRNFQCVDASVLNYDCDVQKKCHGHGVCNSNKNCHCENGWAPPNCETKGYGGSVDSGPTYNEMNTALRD
Chain of TACE catalytic domain (human) (human) (P78536 215-477 limits assumed): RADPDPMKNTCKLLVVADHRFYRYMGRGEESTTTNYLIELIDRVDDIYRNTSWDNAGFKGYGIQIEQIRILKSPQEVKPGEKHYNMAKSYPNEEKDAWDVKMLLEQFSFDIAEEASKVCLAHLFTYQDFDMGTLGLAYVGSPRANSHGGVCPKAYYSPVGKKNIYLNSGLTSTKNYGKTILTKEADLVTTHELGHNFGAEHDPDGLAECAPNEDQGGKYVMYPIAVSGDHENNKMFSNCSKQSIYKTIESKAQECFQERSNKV
Chain of MMP 3 (P08254 100-477): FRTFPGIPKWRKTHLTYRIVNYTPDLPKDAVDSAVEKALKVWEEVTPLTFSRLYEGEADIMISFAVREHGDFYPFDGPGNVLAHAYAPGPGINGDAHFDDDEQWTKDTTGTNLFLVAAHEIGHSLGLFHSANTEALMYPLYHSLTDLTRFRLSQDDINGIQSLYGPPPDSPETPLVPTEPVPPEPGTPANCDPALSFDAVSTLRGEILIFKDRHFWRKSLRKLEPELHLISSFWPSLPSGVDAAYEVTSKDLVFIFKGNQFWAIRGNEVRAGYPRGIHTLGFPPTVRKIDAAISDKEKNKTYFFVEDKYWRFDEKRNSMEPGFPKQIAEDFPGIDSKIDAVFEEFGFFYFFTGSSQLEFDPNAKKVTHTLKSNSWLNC
Chain of MMP 9 (P14780 107-707): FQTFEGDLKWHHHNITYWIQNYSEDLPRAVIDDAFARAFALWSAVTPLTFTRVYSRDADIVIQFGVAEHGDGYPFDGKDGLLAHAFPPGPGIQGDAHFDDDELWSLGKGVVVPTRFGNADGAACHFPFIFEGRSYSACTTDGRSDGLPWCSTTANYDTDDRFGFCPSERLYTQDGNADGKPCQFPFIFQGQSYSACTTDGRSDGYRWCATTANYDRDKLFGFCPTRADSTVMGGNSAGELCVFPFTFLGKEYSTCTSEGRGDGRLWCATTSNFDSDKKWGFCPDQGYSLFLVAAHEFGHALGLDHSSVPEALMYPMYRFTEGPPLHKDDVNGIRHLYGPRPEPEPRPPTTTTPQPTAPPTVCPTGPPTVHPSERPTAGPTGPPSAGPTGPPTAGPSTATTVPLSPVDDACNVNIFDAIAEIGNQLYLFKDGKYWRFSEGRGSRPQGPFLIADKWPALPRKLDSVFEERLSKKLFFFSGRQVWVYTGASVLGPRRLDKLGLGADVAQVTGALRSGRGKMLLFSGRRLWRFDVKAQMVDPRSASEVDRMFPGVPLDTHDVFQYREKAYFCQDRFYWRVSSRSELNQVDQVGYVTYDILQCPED
Chain of mouse ADAM 10 catalytic domain (mouse) (O35598 215-457 limits assumed): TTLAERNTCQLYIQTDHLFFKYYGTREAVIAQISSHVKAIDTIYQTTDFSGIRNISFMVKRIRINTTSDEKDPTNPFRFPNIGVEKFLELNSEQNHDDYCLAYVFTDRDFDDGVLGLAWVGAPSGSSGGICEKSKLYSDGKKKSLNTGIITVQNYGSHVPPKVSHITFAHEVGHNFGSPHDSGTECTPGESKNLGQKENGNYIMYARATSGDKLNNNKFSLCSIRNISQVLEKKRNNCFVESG
Chain of Human ADAM10 protease containing the catalytic/disintegrin domains (human) (O14672 214-672 limits assumed): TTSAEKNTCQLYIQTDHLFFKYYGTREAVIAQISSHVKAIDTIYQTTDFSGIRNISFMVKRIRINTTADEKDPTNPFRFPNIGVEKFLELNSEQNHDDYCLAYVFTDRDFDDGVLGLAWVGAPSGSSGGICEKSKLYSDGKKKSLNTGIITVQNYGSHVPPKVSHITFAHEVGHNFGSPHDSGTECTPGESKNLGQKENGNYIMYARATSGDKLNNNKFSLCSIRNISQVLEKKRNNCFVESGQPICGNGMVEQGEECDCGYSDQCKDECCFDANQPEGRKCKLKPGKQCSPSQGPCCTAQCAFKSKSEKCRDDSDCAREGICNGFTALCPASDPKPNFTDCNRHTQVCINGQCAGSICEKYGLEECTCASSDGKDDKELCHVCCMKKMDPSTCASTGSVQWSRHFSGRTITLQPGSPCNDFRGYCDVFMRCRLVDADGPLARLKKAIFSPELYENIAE
Chain of MMP 1 (P03956 100-469): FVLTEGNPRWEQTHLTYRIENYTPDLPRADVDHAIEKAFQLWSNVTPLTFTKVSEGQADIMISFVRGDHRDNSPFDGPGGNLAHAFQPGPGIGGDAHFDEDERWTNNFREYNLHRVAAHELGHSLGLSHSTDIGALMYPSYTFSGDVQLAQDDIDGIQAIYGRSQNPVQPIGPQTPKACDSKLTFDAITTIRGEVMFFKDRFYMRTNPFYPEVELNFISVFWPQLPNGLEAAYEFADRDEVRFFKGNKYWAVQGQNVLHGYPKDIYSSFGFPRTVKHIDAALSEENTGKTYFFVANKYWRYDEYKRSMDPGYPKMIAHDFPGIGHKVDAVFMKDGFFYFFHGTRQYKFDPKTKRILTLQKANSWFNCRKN
Chain of MMP 2 (P08253 110-660): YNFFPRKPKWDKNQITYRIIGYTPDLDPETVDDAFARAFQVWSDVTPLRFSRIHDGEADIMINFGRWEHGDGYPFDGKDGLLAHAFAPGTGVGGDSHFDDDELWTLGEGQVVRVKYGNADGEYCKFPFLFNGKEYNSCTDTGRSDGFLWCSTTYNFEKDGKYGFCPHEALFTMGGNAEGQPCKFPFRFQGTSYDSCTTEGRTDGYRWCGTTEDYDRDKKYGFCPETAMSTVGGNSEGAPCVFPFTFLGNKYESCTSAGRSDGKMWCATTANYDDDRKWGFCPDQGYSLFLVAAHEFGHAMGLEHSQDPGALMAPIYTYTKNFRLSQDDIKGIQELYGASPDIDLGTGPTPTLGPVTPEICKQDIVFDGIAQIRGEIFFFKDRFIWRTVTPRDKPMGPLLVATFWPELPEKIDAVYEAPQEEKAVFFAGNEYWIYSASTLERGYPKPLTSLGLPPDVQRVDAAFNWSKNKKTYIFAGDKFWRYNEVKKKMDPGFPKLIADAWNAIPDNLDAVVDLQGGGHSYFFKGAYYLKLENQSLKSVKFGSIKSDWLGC

On to “ADAM10 prodomain (betacellulin shedding assay, construct not specified)”, for which, in assay [1], the inhibition of calcium ionophore induced betacellulin shedding (BTC ELISA) was 67 % (at 15 µM), the inhibition of calcium ionophore induced betacellulin shedding (BTC ELISA) (% (at 1.5 µM)) turned out to be 25, the inhibition of constitutive betacellulin shedding (BTC ELISA) was 90 % (at 15 µM) and the inhibition of constitutive betacellulin shedding (BTC ELISA) (% (at 1.5 µM)) came out at 75.

Take “C173S ProADAM 10 23-213 (C-terminal His tag) (from UniProt O35598 23-213)”: the Ki (as a rule, the equilibrium dissociation constant of an inhibitor or competing ligand from its target) was 1000 nM in assay [2]; > 2000 nM in [3]; > 2000 nM in assay [4]; > 2000 nM in assay [5]; > 2000 nM in assay [6]; > 1000 nM in assay [7]. Further, the Ki is > 3000 nM in assay [8]; > 2000 nM in assay [9]; > 3000 nM in assay [10]; > 2000 nM in [11]; 36 nM in assay [12]; 17 nM in assay [13]. Also, in assay [14], the Ki was > 10000 nM. In assay [15], this substance showed an inhibition of CD23 shedding in Ramos cells (soluble CD23 ELISA) of 30%. In [15], the inhibition of CD23 shedding in U937 cells (soluble CD23 ELISA) is 30%.

Regarding “Pro ADAM 17 (mouse) (from UniProt Q9Z0F8 18-214)”, the prodomain inhibition of enzyme activity (percent) in assay [16] amounted to 0%.

Values taken from patent US20100081620A1.
